Data: the Human Domainome abundance scans (Beltran et al. 2025)

B1: Chromodomain-helicase-DNA-binding protein 3, residues 374 to 426; numbered along this chain, Q12873 (parent)
chain: YETDHQDYCEVCQQGGEIILCDTCPRAYHLVCLDPELDRAPEGKWSCPHCEKE

Variants of: B1
Test: abundance fitness (aPCA) (normalised: wild type 0, dead -1); higher = more abundant; growth selection in yeast, the domain comes from the species named
Details: Homo sapiens

Abundance fitness, by site and new letter:
Q13: W -0.363, S -0.019, K -0.051, D -0.346, P -0.783, A -0.237, E -0.09, V -0.057, G -0.194, N -0.084, F 0.012, H 0.059, C -0.048, M 0.084, Y -0.015, R 0.01
I19: G -0.177, V -0.153, Q 0.068, N 0.167, K 0.19, T 0.051, S -0.162, F -0.277, H -0.111, Y 0.117, R -0.101, L 0.093, M 0.313, D -0.248
Y8: C -0.211, I 0.21, F 0.083, S -0.026, W -0.086, E 0.098, Q 0.499, G 0.165, L 0.215, T -0.118, R 0.25, N 0.061, K 0.141, V 0.053, P 0.302, A 0.207, H 0.461
H5: N 0.229, D -1.03, T 0.186, W -0.197, C 0.222, G 0.366, F -0.171, E -0.137, V 0.142, R 0.118, Q 0.13, P -0.071, L 0.161, A 0.329, S 0.302
D7: P 0.134, Q -0.146, S -0.154, A 0.043, E -0.263, N 0.044, Y -0.522, V -0.083, R -0.289, M -0.105, L -0.727, T -0.036, F -0.37, K -0.044, W -0.767, H -0.012, G -0.055
T3: D -0.163, A -0.179, I -0.035, E 0.314, P -0.09, K 0.363, F 0.236, Y 0.113, W 0.13, M 0.377, V -0.055, R 0.206, Q -0.069, H -0.481, G 0.136, C -0.048
G15: Y -0.03, N -0.065, D -0.21, Q -0.434, C -0.823, M 0.084, P -0.488, A 0.329, T 0.088, W -0.121, K 0.112, E -0.202, L -0.366, V -0.609
I18: H 0.063, Q -0.107, G -0.087, E 0.13, F -0.071, W -0.152, C -0.521, L -0.022, N -0.218, A 0.024, V -0.297, S -0.26, T 0.131, P -0.191, K -0.124, Y 0.162, R -0.12
E2: I 0.419, V -0.232, S 0.125, P -0.095, K 0.294, G -0.011, T 0.34, H 0.126, F 0.285, Q 0.231, N 0.526, Y 0.327, R -0.086, W -0.006, L 0.282, M 0.549
Q6: P -0.353, F -0.579, G -0.299, Y -0.267, E -0.227, R -0.139, H -0.014, S -0.439, C -0.499, W -0.378, A -0.209, D -0.294
Q14: M -0.022, P -1, D -0.166, N 0.016, A -0.043, G -0.151, E -0.029, F -0.26, R 0.017, C -0.036, Y -0.501, I -0.17, T -0.051, L -0.127, S -0.192, H -0.159, V -0.129
D22: G -0.191, H -0.388, Q 0.557, F -0.344, C -0.229, I -0.021, A -0.31, R 0.053, L -0.171, P -0.109, N -0.008, M 0.008
E17: D -0.047, R -0.148, F -0.162, I -0.353, A -0.081, T 0.053, Q -0.147, S -0.087, Y -0.031, G -0.234, P -0.558, H -0.882, N 0.07, V -0.489, M 0.152, C -0.037, L -0.258
C12: V -0.78, N -0.67, E -0.83, A -0.712, P -0.76, I -0.947, S -0.956, D -0.7, T -0.813, Y -0.871, R -0.954, F -0.903, W -0.836, H -0.999, K -0.757, L -0.866, G -0.845
G16: W 0.025, H -0.057, P -0.423, E 0.07, S 0.118, T 0.234, V -0.113, D -0.053, I 0.079, C -0.256, M -0.237, L -0.097, Q -0.251, Y 0.033, F -0.156, K 0.346, N 0.157, R 0.197
D4: Y -0.126, H -0.136, Q 0.075, C -0.066, R -0.203, W -0.088, T 0.079, N -0.406, I -0.156, V 0.166, M 0.438, A 0.133, K -0.041, G -0.001, L 0.077, F -0.055
C9: W -0.716, N -0.353, G -0.669, H -0.786, P -0.756, F -0.975, Y -0.74, A -0.96, Q -0.551, E -0.548, D -0.743, L -0.681, R -0.62, V -0.633, K -0.425
V11: R 0.12, L 0.145, K 0.258, E 0.277, D 0.178, A -0.143, Y 0.085, M 0.279, F 0.138, W -0.266, Q -0.217, H 0.362, N 0.182, T 0.269, S 0.284, P 0.029, C 0.184
C21: L -0.74, G -0.637, W -0.831, A -0.778, Y -0.692, E -1.15, P -0.984, I -0.818, H -0.806, N -0.903, S -0.569, Q -0.822, V -0.57, D -0.868, T -0.381, K -0.846, M -0.901
L20: F 0.037, M 0.047, E -0.003, T 0.262, Y 0.102, K 0.081, Q -0.143, I 0.076, C 0.01, W -0.205, D 0.015, N 0.101, G 0.208, P 0.402, V -0.078, R 0.149, S 0.171
E10: P -0.006, N 0.268, D 0.169, G -0.139, K 0.169, H 0.114, S 0.064, M -0.301, Y 0.158, R 0.027, Q 0.116, A -0.083, L 0.259, C 0.046, F -0.08, V 0.137, T 0.132
